Results from publication PMC6326742 (Cell, 2018).

Target: the molecule itself
Assay: SEC-MALS

B1: Ptch1-B (stabilized mouse PTCH1 variant, SBP-tagged, purified) (receptor, UniProt Q61115 1-1291, looked up)
chain: MASAGNAAGALGRQAGGGRRRRTGGPHRAAPDRDYLHRPSYCDAAFALEQISKGKATGRKAPLWLRAKFQRLLFKLGCYIQKNCGKFLVVGLLIFGAFAVGLKAANLETNVEELWVEVGGRVSRELNYTRQKIGEEAMFNPQLMIQTPKEEGANVLTTEALLQHLDSALQASRVHVYMYNRQWKLEHLCYKSGELITETGYMDQIIEYLYPCLIITPLDCFWEGAKLQSGTAYLLGKPPLRWTNFDPLEFLEELKKINYQVDSWEEMLNKAEVGHGYMDRPCLNPADPDCPATAPNKNSTKPLDVALVLNGGCQGLSRKYMHWQEELIVGGTVKNATGKLVSAHALQTMFQLMTPKQMYEHFRGYDYVSHINWNEDRAAAILEAWQRTYVEVVHQSVAPNSTQKVLPFTTTTLDDILKSFSDVSVIRVASGYLLMLAYACLTMLRWDCSKSQGAVGLAGVLLVALSVAAGLGLCSLIGISFNAATTQVLPFLALGVGVDDVFLLAHAFSETGQNKRIPFEDRTGECLKRTGASVALTSISNVTAFFMAALIPIPALRAFSLQAAVVVVFNFAMVLLIFPAILSMDLYRREDRRLDIFCCFTSPCVSRVIQVEPQAYTEPMQSTVQLRTEYDPHTHVYYTTAEPRSEISVQPVTVTQDNLSCQSPESTSSTRDLLSQFSDSSLHCLEPPCTKWTLSSFAEKHYAPFLLKPKAKVVVILLFLGLLGVSLYGTTRVRDGLDLTDIVPRETREYDFIAAQFKYFSFYNMYIVTQKADYPNIQHLLYDLHKSFSNVKYVMLEENKQLPQMWLHYFRDWLQGLQDAFDSDWETGRIMPNNYKNGSDDGVLAYKLLVQTGSRDKPIDISQLTKQRLVDADGIINPSAFYIYLTAWVSNDPVAYAASQANIRPHRPEWVHDKADYMPETRLRIPAAEPIEYAQFPFYLNGLRDTSDFVEAIEKVRVICNNYTSLGLSSYPNGYPFLFWEQYISLRHWLLLSISVVLACTFLVCAVFLLNPWTAGIIVMVLALMTVELFGMMGLIGIKLSAVPVVILIASVGIGVEFTVHVALAFLTAIGDKNHRAMLALEHMFAPVLDGAVSTLLGVLMLAGSEFDFIVRYFFAVLAILTVLGVLNGLVLLPVLLSFFGPCPEVSPANGLNRLPTPSPEPPPSVVRFAVPPGHTNNGSDSSDSEYSSQTTVSGISEELRQYEAQQGAGGPAHQVIVEATENPVFARSTVVHPDSRHQPPLTPRQQPHLDSGSLSPGRQGQQPRRD
  stoichiometry N: 2
